According to PMC11484851, “Structure of endothelin ETB receptor–Gi complex in a conformation stabilized by unique NPxxL motif” (Communications Biology, 2024):
Blank lines part the entries; values can stand above or below the substance they belong to.

Assays:
[1] = target: Flag-tagged wild-type endothelin type B receptor (ETBR) (human) (UniProt P24530)
[2] = target: wild-type ETB receptor, Flag-tagged, expressed in HEK293A cells (human) (UniProt P24530)
ETBR K391A (human) = ETBR K391A (human) (UniProt P24530)
ETBR K391A (human), sequence (P24530 27-442 K391A): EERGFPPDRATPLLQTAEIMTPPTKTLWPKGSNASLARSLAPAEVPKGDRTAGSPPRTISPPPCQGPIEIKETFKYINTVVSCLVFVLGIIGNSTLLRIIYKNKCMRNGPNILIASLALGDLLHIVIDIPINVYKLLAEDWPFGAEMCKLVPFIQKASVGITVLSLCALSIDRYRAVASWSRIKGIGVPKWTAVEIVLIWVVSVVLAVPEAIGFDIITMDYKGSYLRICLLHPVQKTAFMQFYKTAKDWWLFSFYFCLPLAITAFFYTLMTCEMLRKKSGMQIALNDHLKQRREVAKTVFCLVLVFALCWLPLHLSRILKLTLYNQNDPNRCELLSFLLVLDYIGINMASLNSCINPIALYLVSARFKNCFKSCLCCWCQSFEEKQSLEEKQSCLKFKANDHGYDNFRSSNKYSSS

ETBR T324A (human) = ETBR T324A (human) (UniProt P24530)
ETBR T324A (human), sequence (P24530 27-442 T324A): as the sequence (P24530 27-442 K391A) above, with T298A, A365K counted along it

ETBR S390A (human) = ETBR S390A (human) (UniProt P24530)
ETBR S390A (human), sequence (P24530 27-442 S390A): as the sequence (P24530 27-442 K391A) above, with S364A, A365K counted along it

ETBR V325A (human) = ETBR V325A (human) (UniProt P24530)
ETBR V325A (human), sequence (P24530 27-442 V325A): as the sequence (P24530 27-442 K391A) above, with V299A, A365K counted along it

ETBR M296A (human) = ETBR M296A (human) (UniProt P24530)
ETBR M296A (human), sequence (P24530 27-442 M296A): as the sequence (P24530 27-442 K391A) above, with M270A, A365K counted along it

ETBR N134A (human) = ETBR N134A (human) (UniProt P24530)
ETBR N134A (human), sequence (P24530 27-442 N134A): as the sequence (P24530 27-442 K391A) above, with N108A, A365K counted along it

ETBR V389A (human) = ETBR V389A (human) (UniProt P24530)
ETBR V389A (human), sequence (P24530 27-442 V389A): as the sequence (P24530 27-442 K391A) above, with V363A, A365K counted along it

ETBR R318A (human) = ETBR R318A (human) (UniProt P24530)
ETBR R318A (human), sequence (P24530 27-442 R318A): as the sequence (P24530 27-442 K391A) above, with R292A, A365K counted along it

ETBR M300A (human) = ETBR M300A (human) (UniProt P24530)
ETBR M300A (human), sequence (P24530 27-442 M300A): as the sequence (P24530 27-442 K391A) above, with M274A, A365K counted along it

ETBR H314A (human) = ETBR H314A (human) (UniProt P24530)
ETBR H314A (human), sequence (P24530 27-442 H314A): as the sequence (P24530 27-442 K391A) above, with H288A, A365K counted along it

Flag-tagged wild-type endothelin type B receptor (ETBR) (human), sequence (P24530 27-442): as the sequence (P24530 27-442 K391A) above, with A365K counted along it
LgBiT-inserted Gαi1, wild type (NanoBiT G-protein construct), sequence (P63096 whole entry): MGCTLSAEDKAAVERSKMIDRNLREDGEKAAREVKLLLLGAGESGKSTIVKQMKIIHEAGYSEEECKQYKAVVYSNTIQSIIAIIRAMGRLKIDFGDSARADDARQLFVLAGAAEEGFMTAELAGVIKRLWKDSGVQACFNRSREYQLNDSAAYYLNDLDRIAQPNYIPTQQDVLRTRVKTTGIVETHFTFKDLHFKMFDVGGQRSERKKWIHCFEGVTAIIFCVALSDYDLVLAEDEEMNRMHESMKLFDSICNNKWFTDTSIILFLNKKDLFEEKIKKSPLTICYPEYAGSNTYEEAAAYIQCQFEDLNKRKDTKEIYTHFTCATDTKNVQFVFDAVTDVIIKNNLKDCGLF
wild-type ETB receptor, Flag-tagged, expressed in HEK293A cells (human), sequence (P24530 27-442): as the sequence (P24530 27-442 K391A) above, with A365K counted along it

Supplementary Table 1f: Emax, %WT, of the ET-1 concentration–response in the NanoBiT Gi-protein dissociation assay, HEK293A cells [1]: 92.2 % of WT
Substance: LgBiT-inserted Gαi1 D350A (from UniProt P63096 1-354) (natural protein)

NanoBiT Gi-protein dissociation assay, ET-1-induced, HEK293A cells, mutant Gαi against wild type [2]: 50 % decrease
Substance: Gαi1 K345A (LgBiT-inserted NanoBiT construct) (from UniProt P63096 1-354) (natural protein)

Supplementary Table 1f: Emax, %WT, of the ET-1 concentration–response in the NanoBiT Gi-protein dissociation assay, HEK293A cells [1]: 96.5 % of WT
Substance: LgBiT-inserted Gαi1 N347A (from UniProt P63096 1-354) (natural protein)

NanoBiT Gi-protein dissociation assay, ET-1-induced, HEK293A cells, mutant Gαi against wild type [2]: 50 % decrease
Substance: Gαi1 G352A (LgBiT-inserted NanoBiT construct) (from UniProt P63096 1-354) (natural protein)

Supplementary Table 1f: Emax, %WT, of the ET-1 concentration–response in the NanoBiT Gi-protein dissociation assay, HEK293A cells [1]: 48.9 % of WT
Substance: LgBiT-inserted Gαi1 K345A (from UniProt P63096 1-354) (natural protein)

Supplementary Table 1f: Emax, %WT, of the ET-1 concentration–response in the NanoBiT Gi-protein dissociation assay, HEK293A cells [1]: 61.8 % of WT
Substance: LgBiT-inserted Gαi1 G352A (from UniProt P63096 1-354) (natural protein)

Supplementary Table 1f: Emax, %WT, of the ET-1 concentration–response in the NanoBiT Gi-protein dissociation assay, HEK293A cells [1]: 7.8 % of WT
Substance: LgBiT-inserted Gαi1 L353A (from UniProt P63096 1-354) (natural protein)

Supplementary Table 1c: Emax, %WT, of the ET-1 concentration–response in the NanoBiT Gi-protein dissociation assay, HEK293A cells; WT (35% plasmid) [1]: 62.9 % of WT
Supplementary Table 1c: Emax, %WT, of the ET-1 concentration–response in the NanoBiT Gi-protein dissociation assay, HEK293A cells; WT (50% plasmid) [1]: 76.5 % of WT
Supplementary Table 1c: Emax, %WT, of the ET-1 concentration–response in the NanoBiT Gi-protein dissociation assay, HEK293A cells; WT (100% plasmid) [1]: 100 % of WT
Supplementary Table 1f: Emax, %WT, of the ET-1 concentration–response in the NanoBiT Gi-protein dissociation assay, HEK293A cells; WT Gαi [1]: 100 % of WT
Supplementary Table 1d (same row in 1e): Emax, %WT, of the ET-1 concentration–response in the NanoBiT Gi-protein dissociation assay, HEK293A cells; WT (100% plasmid) [1]: 100 % of WT
Supplementary Table 1e: Emax, %WT, of the ET-1 concentration–response in the NanoBiT Gi-protein dissociation assay, HEK293A cells (ETBR K391A (human)): 91.2 % of WT
Supplementary Table 1e: Emax, %WT, of the ET-1 concentration–response in the NanoBiT Gi-protein dissociation assay, HEK293A cells (ETBR T324A (human)): 77.3 % of WT
Supplementary Table 1c: Emax, %WT, of the ET-1 concentration–response in the NanoBiT Gi-protein dissociation assay, HEK293A cells (ETBR S390A (human)): 28.8 % of WT
Supplementary Table 1d: Emax, %WT, of the ET-1 concentration–response in the NanoBiT Gi-protein dissociation assay, HEK293A cells (ETBR V325A (human)): 63.5 % of WT
Supplementary Table 1d: Emax, %WT, of the ET-1 concentration–response in the NanoBiT Gi-protein dissociation assay, HEK293A cells (ETBR M296A (human)): 36.2 % of WT
Supplementary Table 1c: Emax, %WT, of the ET-1 concentration–response in the NanoBiT Gi-protein dissociation assay, HEK293A cells (ETBR N134A (human)): 54.6 % of WT
Supplementary Table 1e: Emax, %WT, of the ET-1 concentration–response in the NanoBiT Gi-protein dissociation assay, HEK293A cells (ETBR V389A (human)): 96.3 % of WT
Supplementary Table 1e: Emax, %WT, of the ET-1 concentration–response in the NanoBiT Gi-protein dissociation assay, HEK293A cells (ETBR R318A (human)): 88.2 % of WT
Supplementary Table 1d: Emax, %WT, of the ET-1 concentration–response in the NanoBiT Gi-protein dissociation assay, HEK293A cells (ETBR M300A (human)): 46.9 % of WT
Supplementary Table 1e: Emax, %WT, of the ET-1 concentration–response in the NanoBiT Gi-protein dissociation assay, HEK293A cells (ETBR H314A (human)): 90.2 % of WT
Substance: LgBiT-inserted Gαi1, wild type (NanoBiT G-protein construct) (from UniProt P63096 1-354) (natural protein)

Supplementary Table 1f: Emax, %WT, of the ET-1 concentration–response in the NanoBiT Gi-protein dissociation assay, HEK293A cells [1]: 92.1 % of WT
Substance: LgBiT-inserted Gαi1 D341A (from UniProt P63096 1-354) (natural protein)

Supplementary Table 1f: Emax, %WT, of the ET-1 concentration–response in the NanoBiT Gi-protein dissociation assay, HEK293A cells [1]: 87 % of WT
Substance: LgBiT-inserted Gαi1 C351A (from UniProt P63096 1-354) (natural protein)

Supplementary Table 1f: Emax, %WT, of the ET-1 concentration–response in the NanoBiT Gi-protein dissociation assay, HEK293A cells [1]: 87.8 % of WT
Substance: LgBiT-inserted Gαi1 F354A (from UniProt P63096 1-354) (natural protein)
